Holding throughout (assay): G' assay
For assay [1], the target named is T1, GST-KIAA1634 PDZ domain 2 (Homo sapiens (Human)), Q5TCQ9.
T1 chain: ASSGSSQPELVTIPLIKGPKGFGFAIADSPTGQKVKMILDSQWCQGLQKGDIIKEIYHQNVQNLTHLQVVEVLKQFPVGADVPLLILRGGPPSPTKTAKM

Assay [2] addresses T2, GST-Outer Membrane PDZ domain 1 (Homo sapiens (Human)), P57105.
T2 chain: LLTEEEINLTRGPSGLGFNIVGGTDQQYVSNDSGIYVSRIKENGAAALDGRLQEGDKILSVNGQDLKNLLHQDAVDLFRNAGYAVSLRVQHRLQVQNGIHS

The target in assay [3] is T3, GST-MINT1 PDZ domains 1, 2, Q02410.
T3 chain: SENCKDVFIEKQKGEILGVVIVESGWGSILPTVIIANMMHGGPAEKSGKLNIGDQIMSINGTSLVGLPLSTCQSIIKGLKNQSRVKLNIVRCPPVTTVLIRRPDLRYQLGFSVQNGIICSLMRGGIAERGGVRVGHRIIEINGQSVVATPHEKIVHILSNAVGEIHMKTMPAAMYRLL

For assay [4], the target named is T4, GST-MUPP1 PDZ domain 10 (Homo sapiens (Human)), O75970.
T4 chain: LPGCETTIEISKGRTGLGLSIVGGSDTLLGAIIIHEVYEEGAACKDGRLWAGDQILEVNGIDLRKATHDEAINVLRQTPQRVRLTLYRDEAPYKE

For assay [5], the target named is T5, GST-AIPC PDZ domain 1 (Homo sapiens (Human)), O15018.
T5 chain: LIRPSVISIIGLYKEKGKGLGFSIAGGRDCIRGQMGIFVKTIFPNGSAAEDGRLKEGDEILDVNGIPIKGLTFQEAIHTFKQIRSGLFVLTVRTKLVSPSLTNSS

Assay [6] concerns the target GST-KIAA807 [GST: P08515].
Assay [7] deals with T6, GST-DLG1 PDZ domain 2 (Homo sapiens), Q12959.
T6 chain: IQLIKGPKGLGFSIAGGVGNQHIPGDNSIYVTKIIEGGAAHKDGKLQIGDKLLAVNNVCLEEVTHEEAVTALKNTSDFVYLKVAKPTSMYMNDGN

Assay [8] addresses GST-DLG1 PDZ domain 1 (Homo sapiens), Q12959.
Assay [9] deals with T7, GST-INADL PDZ domain 8 (Homo sapiens (Human)), Q8NI35.
T7 chain: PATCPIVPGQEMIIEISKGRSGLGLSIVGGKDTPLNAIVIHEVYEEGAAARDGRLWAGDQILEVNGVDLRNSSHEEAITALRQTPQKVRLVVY

Assay [10] has as its target T8, GST-NeDLG PDZ domain 2 (Rattus norvegicus (Rat)), Q62936.
T8 chain: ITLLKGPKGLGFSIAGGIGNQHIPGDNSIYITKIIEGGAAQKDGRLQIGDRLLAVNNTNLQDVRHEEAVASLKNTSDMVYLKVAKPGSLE

Assay [11] addresses T9, GST-FLJ 10324 PDZ domain 1 [GST: P08515].
T9 chain: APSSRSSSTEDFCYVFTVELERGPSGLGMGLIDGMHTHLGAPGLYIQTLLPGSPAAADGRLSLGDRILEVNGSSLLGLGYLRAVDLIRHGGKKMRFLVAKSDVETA

In assay [12] the target is GST-BAI-1 Associated Protein PDZ domain 5 (Homo sapiens (Human)), Q96QZ7.
GST-BAI-1 Associated Protein PDZ domain 5 (Homo sapiens (Human)), Q96QZ7, sequence (Q96QZ7 988-1099): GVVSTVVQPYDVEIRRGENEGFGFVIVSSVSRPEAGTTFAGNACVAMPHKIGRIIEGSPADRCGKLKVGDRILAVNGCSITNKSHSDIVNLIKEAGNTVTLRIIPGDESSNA
Assay [13] has as its target GST-KIAA1634 PDZ domain 1 (Homo sapiens (Human)), Q5TCQ9.
In assay [14] the target is T10, GST-NeDLG PDZ domains 1, 2, Q92796.
T10 chain: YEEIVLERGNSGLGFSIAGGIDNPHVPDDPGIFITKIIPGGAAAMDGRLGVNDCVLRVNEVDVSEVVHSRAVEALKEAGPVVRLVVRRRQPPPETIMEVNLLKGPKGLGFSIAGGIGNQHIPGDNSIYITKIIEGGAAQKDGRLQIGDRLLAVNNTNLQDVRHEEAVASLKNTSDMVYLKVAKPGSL

Assay [15] concerns the target GST-PSD95 PDZ domain 1 (Homo sapiens).
In assay [16] the target is T11, GST-MUPP1 PDZ domain 13 (Homo sapiens (Human)), O75970.
T11 chain: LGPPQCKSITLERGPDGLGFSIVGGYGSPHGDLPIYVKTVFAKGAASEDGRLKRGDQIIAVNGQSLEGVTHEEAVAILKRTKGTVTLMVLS

In assay [17] the target is GST-BAI-1 Associated Protein PDZ domain 2 (Mus musculus (Mouse)), Q6RHR9.
GST-BAI-1 Associated Protein PDZ domain 2 (Mus musculus (Mouse)), Q6RHR9, sequence (Q6RHR9 455-558): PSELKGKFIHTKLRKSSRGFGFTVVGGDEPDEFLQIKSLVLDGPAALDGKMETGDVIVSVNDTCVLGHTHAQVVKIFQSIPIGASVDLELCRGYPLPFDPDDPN
Assay [18] addresses GST-PSD95 PDZ domains 1, 2, 3 (Homo sapiens), P78352.
For assay [19], the target named is T12, GST-PTPL1 PDZ domain 2 (Homo sapiens (Human)), Q12923.
T12 chain: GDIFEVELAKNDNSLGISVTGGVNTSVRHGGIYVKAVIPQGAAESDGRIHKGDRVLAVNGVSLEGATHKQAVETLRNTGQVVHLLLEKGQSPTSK

Assay [20] concerns the target T13, GST-APXL-1 PDZ domain 1 (Homo sapiens (Human)), Q13796.
T13 chain: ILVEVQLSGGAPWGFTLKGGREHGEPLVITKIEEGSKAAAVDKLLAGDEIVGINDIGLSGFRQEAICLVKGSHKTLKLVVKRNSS

Assay [21] addresses T14, GST-ENIGMA PDZ domain 1 (Homo sapiens (Human)), Q9NR12.
T14 chain: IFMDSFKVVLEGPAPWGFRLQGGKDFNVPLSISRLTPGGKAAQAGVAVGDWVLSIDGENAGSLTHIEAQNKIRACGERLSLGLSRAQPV

The target of assay [22] is T15, GST-TIP1 PDZ domain 1 (Table 9 insert) (Homo sapiens (Human)), O14907.
T15 chain: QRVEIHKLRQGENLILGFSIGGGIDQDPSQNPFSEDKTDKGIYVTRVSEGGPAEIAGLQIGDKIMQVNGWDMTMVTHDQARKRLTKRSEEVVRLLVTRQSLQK

The target in assay [23] is GST-DLG1 PDZ domains 1, 2 (Homo sapiens), Q12959.
The target of assay [24] is T16, GST-ZO-1 PDZ domain 1 (Rattus norvegicus (Rat)), A0A0G2.
T16 chain: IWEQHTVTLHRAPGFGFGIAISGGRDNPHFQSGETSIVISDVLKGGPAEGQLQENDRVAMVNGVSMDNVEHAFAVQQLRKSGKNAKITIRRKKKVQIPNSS

The target in assay [25] is T17, GST-HEMBA 1003117 PDZ domain 1 (Homo sapiens (Human)), Q96JH8.
T17 chain: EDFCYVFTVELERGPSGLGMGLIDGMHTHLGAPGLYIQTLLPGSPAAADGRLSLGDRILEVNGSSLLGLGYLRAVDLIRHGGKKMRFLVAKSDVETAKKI

The target of assay [26] is T18, GST-PTPL1 PDZ domain 4 (Homo sapiens (Human)), Q12923.
T18 chain: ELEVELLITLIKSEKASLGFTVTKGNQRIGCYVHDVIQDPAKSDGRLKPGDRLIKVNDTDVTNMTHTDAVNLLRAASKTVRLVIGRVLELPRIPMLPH

Assay [27] has as its target T19, GST-AF6 PDZ domain 1 (Homo sapiens (Human)), P55196.
T19 chain: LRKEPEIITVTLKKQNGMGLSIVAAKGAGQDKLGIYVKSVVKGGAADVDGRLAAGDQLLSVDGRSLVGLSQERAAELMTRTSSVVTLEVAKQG

The target of assay [28] is T20, GST-MUPP1 PDZ domain 11 (Homo sapiens (Human)), O75970.
T20 chain: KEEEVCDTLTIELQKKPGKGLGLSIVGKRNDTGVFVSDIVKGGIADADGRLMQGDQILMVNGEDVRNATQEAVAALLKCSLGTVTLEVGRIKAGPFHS

For assay [29], the target named is GST-PIST PDZ domain 1 (Mus musculus (Mouse)), Q8BH60.
Assay [30] deals with T21, GST-ZO-2 PDZ domain 1 (Homo sapiens (Human)), Q9UDY2.
T21 chain: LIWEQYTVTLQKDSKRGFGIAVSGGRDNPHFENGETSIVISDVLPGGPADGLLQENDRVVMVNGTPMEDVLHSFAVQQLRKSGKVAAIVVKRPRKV

For assay [31], the target named is GST-KIAA0147 PDZ domain 1 (Homo sapiens (Human)), Q14160.
GST-KIAA0147 PDZ domain 1 (Homo sapiens (Human)), Q14160, sequence (Q14160 other isoform, or with tags, fused parts or gaps): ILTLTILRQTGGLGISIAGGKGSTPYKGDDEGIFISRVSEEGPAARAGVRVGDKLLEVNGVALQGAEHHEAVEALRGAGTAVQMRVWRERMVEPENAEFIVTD
Assay [32] addresses T22, GST-DLG2 PDZ domain 2 (Homo sapiens (Human)), Q15700.
T22 chain: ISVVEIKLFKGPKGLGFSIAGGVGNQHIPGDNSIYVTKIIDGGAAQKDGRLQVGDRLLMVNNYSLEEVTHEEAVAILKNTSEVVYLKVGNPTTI

In assay [33] the target is T23, GST-KIAA0807(S) PDZ domain 1 (Homo sapiens (Human)), Q6P0Q8.
T23 chain: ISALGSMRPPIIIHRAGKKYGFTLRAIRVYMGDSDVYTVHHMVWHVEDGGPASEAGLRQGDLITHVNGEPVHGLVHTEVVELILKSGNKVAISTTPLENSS

Assay [34] addresses GST-BAI-1 Associated Protein PDZ domain 4 (Homo sapiens (Human)), Q96QZ7.
Assay [35] has as its target T24, GST-MINT1 PDZ domain 2 (Mus musculus (Mouse)), B2RUJ5.
T24 chain: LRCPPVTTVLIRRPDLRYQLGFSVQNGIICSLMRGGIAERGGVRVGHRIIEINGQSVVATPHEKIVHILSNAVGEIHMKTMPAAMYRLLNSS

The target of assay [36] is T25, GST-X-11 beta PDZ domain 2 (Rattus norvegicus (Rat)), O35431.
T25 chain: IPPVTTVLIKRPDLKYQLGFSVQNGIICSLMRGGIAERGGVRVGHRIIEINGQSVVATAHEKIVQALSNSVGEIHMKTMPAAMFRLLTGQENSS
Also: key of the grades not given here.

GST-PSD95 PDZ domains 1, 2, 3 (Homo sapiens), P78352, sequence (P78352 62-395): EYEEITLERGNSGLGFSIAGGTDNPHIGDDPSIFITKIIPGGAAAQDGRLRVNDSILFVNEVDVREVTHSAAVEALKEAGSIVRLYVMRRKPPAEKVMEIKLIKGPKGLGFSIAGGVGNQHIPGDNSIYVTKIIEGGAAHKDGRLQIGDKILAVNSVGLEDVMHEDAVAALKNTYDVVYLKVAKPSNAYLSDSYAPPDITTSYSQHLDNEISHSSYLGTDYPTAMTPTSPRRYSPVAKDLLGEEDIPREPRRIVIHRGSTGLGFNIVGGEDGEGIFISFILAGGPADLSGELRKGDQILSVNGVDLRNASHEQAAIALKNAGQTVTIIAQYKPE
GST-KIAA807 [GST: P08515], sequence (P08515 whole entry, the tested form may be a part): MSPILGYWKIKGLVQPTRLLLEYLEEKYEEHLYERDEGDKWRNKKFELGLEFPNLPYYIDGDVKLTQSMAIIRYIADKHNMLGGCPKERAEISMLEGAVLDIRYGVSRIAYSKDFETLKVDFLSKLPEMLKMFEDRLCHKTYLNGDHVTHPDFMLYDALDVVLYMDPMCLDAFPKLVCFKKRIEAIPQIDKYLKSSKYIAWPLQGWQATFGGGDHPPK
GST-KIAA1634 PDZ domain 1 (Homo sapiens (Human)), Q5TCQ9, sequence (Q5TCQ9 401-502): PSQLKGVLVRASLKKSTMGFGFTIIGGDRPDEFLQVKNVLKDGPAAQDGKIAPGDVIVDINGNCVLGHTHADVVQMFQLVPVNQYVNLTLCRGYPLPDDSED
GST-BAI-1 Associated Protein PDZ domain 4 (Homo sapiens (Human)), Q96QZ7, sequence (Q96QZ7 other isoform, or with tags, fused parts or gaps): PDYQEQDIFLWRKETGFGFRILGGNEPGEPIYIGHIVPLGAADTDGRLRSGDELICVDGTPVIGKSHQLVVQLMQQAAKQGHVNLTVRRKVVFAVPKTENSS

As for ISGTPTSTMVHGMTSSSSVV (modifications not checked) [Clasp-2], the Classification in [1], in assay [2], in assay [3], in [4], in [5] and in assay [6] was 1 A450 class in each case. The Classification in [7], in assay [8], in [9], in [10], in [11] and in assay [12] was 1 A450 class in each case. For the same molecule, the Classification in assay [13] was 1 A450 class; in assay [14], 2 A450 class; in [15], 1 A450 class; in assay [16] it was 1 A450 class; in [17], 1 A450 class; in assay [18], 2 A450 class. Besides, the Classification in [19] was determined as 1 A450 class.

Take EVIGYIEKPGVETLEDSVF (modifications not checked) [CDW125 (modified)]: the Classification in assay [20] and in assay [21] was 1 A450 class throughout.

On to GPVPGEPAKPKTSAHHATFV (modifications not checked) [RGS12 (regulator of G-protein signaling 12], for which the Classification in assay [22], in [23], in [24], in [25], in assay [11] and in [26] was 1 A450 class throughout. Moreover, the Classification in assay [27], in assay [28], in assay [29] and in assay [30] was 1 A450 class throughout.

GGGGGSGGGGGSGIESVKI (modifications not checked) [GLUR2 (glutamate receptor 2-modified)]: the Classification in assay [31] was determined as 1 A450 class; in [32], 1 A450 class; in [5], 2 A450 class; in assay [23], 2 A450 class; in assay [7], 1 A450 class; in [13], 4 A450 class. Further, the Classification in assay [14] came to 2 A450 class; in [33], 1 A450 class; in assay [21] it was 1 A450 class; in assay [18], 2 A450 class.

NGGFAVDKSDTISFTQTSQF (modifications not checked) [glutamate transporter 3]: the Classification in [34], in assay [3], in assay [4], in assay [20], in assay [6] and in assay [35] was 1 A450 class throughout. For the same molecule, the Classification in assay [26], in assay [36] and in [33] was 1 A450 class throughout.
